Reference: the PETadex activity labels (doi:10.1038/s41467-023-40233-w)

B1: unnamed (protein)
chain: MLSFLRSTGRPERRRASLPALLLFTAALVASGLTAAPAAQAADNPYQRGPDPTNASIEAATGPFAVGTQPIVGASGFGGGQIYYPTDTSQTYGAVVIVPGFISVWAQLNWLGPRLASQGFVVIGIETSTITDLPDPRGDQALAALDWATTRSPVASRIDRTRLAAAGWSMGGGGLRRAALQRPSLKAIVGMAPWNGERNWSAVTVPTLFFGGSSDAVASPNDHAKPFYNSITRAEKDYIELRNADHFFPTSANTTMAKYFISWLKRWVDNDTRYTQFLCPGPSTGLFAPVSASMNTCPF
B2: unnamed (protein)
chain: MLSFLRSTGRPERRRASLPALLLFTAALVASGLTAAPAAQAADNPYQRGPDPTNASIEAATGPFAVGTQPIVGASGFGGGQIYYPTDTSQTYGAVVIVPGFISVWAQLNWLGPRLASQGFVVIGIETSVITDQPDPRGDQALAALDWATTRSPVASRIDRTRLAAAGWSMGGGGLRRAALQRPSLKAIVGMAPWNGERNWSAVTVPTLFFGGSSDAVASPNDHAKPFYNSITRAEKDYIELRNADHFFPTSANTTMAKYFISWLKRWVDNDTRYTQFLCPGPSTGLFAPVSASMNTCPF
B3: unnamed (protein)
chain: MLSFLRSTGRPERRRASLPALLLFTAALVASGLTAAPAAQAADNPYQRGPDPTNASIEAATGPFAVGTQPIVGASGFGGGQIYYPTDTSQTYGAVVIVPGFISVWAQLNWLGPRLASQGFVVIGIETSVITDLPDPRGDQALAALDWATTRSPVASRIDRTRLAAAGHSMGGGGLRRAALQRPSLKAIVGMAPWNGERNWSAVTVPTLFFGGSSDAVASPNDHAKPFYNSITRAEKDYIELRNADHFFPTSANTTMAKYFISWLKRWVDNDTRYTQFLCPGPSTGLFAPVSASMNTCPF
B4: unnamed (protein)
chain: MLSFLRSTGRPERRRASLPALLLFTAALVASGLTAAPAAQAADNPYQRGPDPTNASIEAATGPFAVGTQPIVGASGFGGGQIYYPTDTSQTYGAVVIVPGFISVWAQLNWLGPRLASQGFVVIGIETSVITDLPDPRGDQALAALDWATTRSPVASRIDRTRLAAAGWSMGGGGLRRAALQRPSLKAIVGMAPWNGERNWSAVCVPTLFFGGSSDAVASPNDHAKPFYNSITCAEKDYIELRNADHFFPTSANTTMAKYFISWLKRWVDNDTRYTQFLCPGPSTGLFAPVSASMNTCPF
B5: unnamed (protein)
chain: MLSFLRSTGRPERRRASLPALLLFTAALVASGLTAAPAAQAADNPYQRGPDPTNASIEAATGPFAVGTQPIVGASGFGGGQIYYPTDTSQTYGAVVIVPGFISVWAQLNWLGPRLASQGFVVIGIETSVITDLPDPRGDQALAALDWATTRSPVASRIDATRLAAAGWSMGGGGLRRAALQRPSLKAIVGMAPWNGERNWSAVTVPTLFFGGSSDAVASPNDHAKPFYNSITRAEKDYIELRNADHFFPTSANTTMAKYFISWLKRWVDNDTRYTQFLCPGPSTGLFAPVSASMNTCPF
B6: unnamed (protein)
chain: MLSFLRSTGRPERRRASLPALLLFTAALVASGLTAAPAAQAADNPYQRGPDPTNASIEAATGPFAVGTQPIVGASGFGGGQIYYPTDTSQTYGAVVIVPGFISVWAQLNWLGPRLASQGFVVIGIETSVITDLPDPRGDQALAALDWATTRSPVASRIDRTRLAAAGWSMGGGGLRRAALQRPSLKAIVGMAPWNGERNWSATTVPTLFFGGSSDAVASPNDHAKPFYNSITRAEKDYIELRNADHFFPTSANTTMAKYFISWLKRWVDNDTRYTQFLCPGPSTGLFAPVSASMNTCPF
B7: unnamed (protein)
chain: MLSFLRSTGRPERRRASLPALLLFTAALVASGLTAAPAAQAADNPYQRGPDPTNASIEAATGPFAVGTQPIVGASGFGGGQIYYPTDTSQTYGAVVIVPGFISVWAQLNWLGPRLASQGFVVIGIETSVITDLPDPRGDQALAALDWATTRSPVASRIDRTRLAAAGWSMGGGGLRRAALQRPSLKAIVGMAPWNTERNWSAVTVPTLFFGGSSDAVASPNDHAKPFYNSITRAEKDYIELRNADHFFPTSANTTMAKYFISWLKRWVDNDTRYTQFLCPGPSTGLFAPVSASMNTCPF
B8: unnamed (protein)
chain: MLSFLRSTGRPERRRASLPALLLFTAALVASGLTAAPAAQAADNPYQRGPDPTNASIEAATGPFAVGTQPIVGASGFGGGQIYYPTDTSQTYGAVVIVPGFISVWAQLAWLGPRLASQGFVVIGIETSTITDLPDPRGDQALAALDWATTRSPVRSRIDRTRLAAAGWSMGGGGLRRAACQRPSLKAIVGMAPWNGEKNWSCVTVPTLFFGGSSDAVASPNDHAKPFYNSITRAEKDYIELCNADHFFPTSANTTMAKYFISWLKRWVDNDTRYTQFLCPGPSTGLFAPVCASMNTCPF
B9: unnamed (protein)
chain: MLSFLRSTGRPERRRASLPALLLFTAALVASGLTAAPAAQAADNPYQRGPDPTNASIEAATGPFAVGTQPIVGASGFGGGQIYYPTDTSQTYGAVVIVPGFISVWAQLNWLGPRLASQGFVVIGIETSVITDLPDPRGDQALAALDWATTRSPVASRIDRTRLAAAGWSMGGGGLRRAALQRPSLKAIVGMAPWNGERNWSAVTVPTLFFGGSSDAVASPNDHAKPFYNSITRAEKDYIELRNADHFFPTSANTTMAKYFISWLKRWVDNDTRYTQFLCPGPSTGLFAPVSASRNTCPF
B10: unnamed (protein)
chain: MLSFLRSTGRPERRRASLPALLLFTAALVASGLTAAPAAQAADNPYQRGPDPTNASIEAATGPFAVGTQPIVGASGFGGGQIYYPTDTSQTYGAVVIVPGFISVWAQLNWLGPRLASQGFVVIGIETSVITDLPDPRGDQALAALDWATTRSPVASRIDRTRLAAAGWSMGGGGLRRAACQRPSLKAIVGMAPWNGERNWSCVTVPTLFFGGSSDAVASPNDHAKPFYNSITRAEKDYIELRNADHFFPTSANTTMAKYFISWLKRWVDNDTRYTQFLCPGPSTGLFAPVSASMNTCPF
B11: unnamed (protein)
chain: MLSFLRSTGRPERRRASLPALLLFTAALVASGLTAAPAAQAADNPYQRGPDPTNASIEAATGPFAVGTQPIVGASGFGGGQIYYPTDTSQTYGAVVIVPGFISVWAQLNWLGPRLASQGFVVIGIETSVITDLPDPRGDQALAALDWATTRSPVASRIDRTRLAAAGWSMGGGGLRRAACQRPSLKAIVGMAPWNGERNWSCVTVPTLFFGGSSDAVASPNDHAKPFYNSITRAEKDYIELCNADHFFPTSANTTMAKYFISWLKRWVDNDTRYTQFLCPGPSTGLFAPVCASMNTCPF
B12: unnamed (protein)
chain: MLSFLRSTGRPERRRASLPALLLFTAALVASGLTAAPAAQAADNPYQRGPDPTNASIEAATGPFAVGTQPIVGASGFGGGQIYYPTDTSQTYGAVVIVPGFISVWAQLAWLGPRLASQGFVVIGIETSTITDLPDPRGDQALAALDWATTRSPVRSRIDRTRLAAAGWSMGGGGLRRAACQRPSLKAIVGMAPWNTEKNWSCVTVPTLFFGGSSDAVASPNDHAKPFYNSITRAEKDYIELCNADHFFPTSANTTMAKYFISWLKRWVDNDTRYTQFLCPGPSTGLFAPVCASMNTCPF
B13: unnamed (protein)
chain: MLSFLRSTGRPERRRASLPALLLFTAALVASGLTAAPAAQAADNPYQRGPDPTNASIEAATGPFAVGTQPIVGASGFGGGQIYYPTDTSQTYGAVVIVPGFISVWAQLNWLGPRLASQGFVVIGIETSVITDLPDPRGDQALAALDWATTASPVASRIDRTRLAAAGWSMGGGGLRRAALQRPSLKAIVGMAPWNGERNWSAVTVPTLFFGGSSDAVASPNDHAKPFYNSITRAEKDYIELRNADHFFPTSANTTMAKYFISWLKRWVDNDTRYTQFLCPGPSTGLFAPVSASMNTCPF
B14: unnamed (protein)
chain: MLSFLRSTGRPERRRASLPALLLFTAALVASGLTAAPAAQAADNPYQRGPDPTNASIEAATGPFAVGTQPIVGASGFGGGQIYYPTDTSQTYGAVVIVPGFTSVWAQLNWLGPRLASQGFVVIGIETSVITDLPDPRGDQALAALDWATTRSPVASRIDRTRLAAAGWSMGGGGLRRAALQRPSLKAIVGMAPWNGERNWSAVTVPTLFFGGSSDAVASPNDHAKPFYNSITRAEKDYIELRNADHFFPTSANTTMAKYFISWLKRWVDNDTRYTQFLCPGPSTGLFAPVSASMNTCPF
B15: unnamed (protein)
chain: MLSFLRSTGRPERRRASLPALLLFTAALVASGLTAAPAAQAADNPYQRGPDPTNASIEAATGPFAVGTQPIVGASGFGGGQIYYPTDTSQTYGAVVIVPGFISVWAQLAWLGPRLASQGFVVIGIETSVITDLPDPRGDQALAALDWATTRSPVASRIDRTRLAAAGWSMGGGGLRRAACQRPSLKAIVGMAPWNGERNWSCVTVPTLFFGGSSDAVASPNDHAKPFYNSITRAEKDYIELCNADHFFPTSANTTMAKYFISWLKRWVDNDTRYTQFLCPGPSTGLFAPVCASMNTCPF
B16: unnamed (protein)
chain: MLSFLRSTGRPERRRASLPALLLFTAALVASGLTAAPAAQAADNPYQRGPDPTNASIEAATGPFAVGTQPIVGASGFGGGQIYYPTDTSQTYGAVVIVPGFISVWAQLNWLGPRLASQGFVVIGIETSVITDLPDPRGDQALAALDWATTRSPVASRIDRTRLAAAGWSMGGGGLRRAALQRPSLKAIVGMAPWNGERNWSAVTVPTLFFGGSSDAVASPNDHAKPFYNSITRAEKDYIELRNADHFFPTSANTTMSKYFISWLKRWVDNDTRYTQFLCPGPSTGLFAPVSASMNTCPF

Substrate: pcPET (post-consumer)
Experiment: Proxy for plastic degradation [Released monomer concentration (HPLC/LC-MS) (TPA+MHET+BHET)]
Conditions: pH 9; 40 °C; 24 h

**Q.** For B1, which “Proxy for plastic degradation” value is on record?
**A.** 990 µM

**Q.** With B2 as the protein, how does the “Proxy for plastic degradation” value read?
**A.** 470 µM

**Q.** For B3, which “Proxy for plastic degradation” value is on record?
**A.** 220 µM

**Q.** With B4 as the protein, how does the “Proxy for plastic degradation” value read?
**A.** 590 µM

**Q.** B5 was tested. Which “Proxy for plastic degradation” value did it give?
**A.** 680 µM

**Q.** How did the “Proxy for plastic degradation” value turn out when B6 was run?
**A.** 170 µM

**Q.** Which “Proxy for plastic degradation” value does the source give for B7 here?
**A.** 840 µM

**Q.** With B8 as the protein, how does the “Proxy for plastic degradation” value read?
**A.** 1250 µM

**Q.** With B9 as the protein, how does the “Proxy for plastic degradation” value read?
**A.** 310 µM

**Q.** Which “Proxy for plastic degradation” value does the source give for B10 here?
**A.** 850 µM

**Q.** How did the “Proxy for plastic degradation” value turn out when B11 was run?
**A.** 948 µM

**Q.** Which “Proxy for plastic degradation” value does the source give for B12 here?
**A.** 1370 µM

**Q.** B13 was tested. Which “Proxy for plastic degradation” value did it give?
**A.** 600 µM

**Q.** Which “Proxy for plastic degradation” value does the source give for B14 here?
**A.** 560 µM

**Q.** How did the “Proxy for plastic degradation” value turn out when B15 was run?
**A.** 1080 µM

**Q.** How did the “Proxy for plastic degradation” value turn out when B16 was run?
**A.** 530 µM

Same assay, conditions: pH 9; 60 °C; 6 h

**Q.** With B8 as the protein, how does the “Proxy for plastic degradation” value read?
**A.** 1560 µM

**Q.** B11 was tested. Which “Proxy for plastic degradation” value did it give?
**A.** 270 µM

**Q.** Which “Proxy for plastic degradation” value does the source give for B12 here?
**A.** 1860 µM

**Q.** How did the “Proxy for plastic degradation” value turn out when B15 was run?
**A.** 420 µM
